Laboratory results taken from US8481032B2, “Lipocalin-2 antibodies for methods of treatment” (The University of Hong Kong, priority 2006, dated 2013).

Assays:
[1] = system: T2DM patients; assay: Rosiglitazone treatment of T2DM patients: serum lipocalin-2 and metabolic parameters; assay type: in vivo, human; conditions: 32 T2DM patients, rosiglitazone 4 mg twice daily, 8 weeks
Procedure: The affinity-purified anti-human or anti-murine lipocalin-2 IgG was biotinylated with a kit from Pierce and used as the detection antibodies. The unlabeled anti-human or anti-murine lipocalin-2 IgG was used for coating a 96-well microtiter plate overnight at 4° C. Human or mouse serum was diluted (1:50) into PBS, and 100 μl of the diluted samples or recombinant standards were applied to each well and incubated at 37° C. for 1 h. The plates were washed three times and then incubated with 100 μl of the detection antibody for another 2 h. After washing for another three times with PBS, the wells were incubated with streptavidin-conjugated horseradish peroxidase for 1 h and subsequently reacted with tetramethyl-benzidine reagent for 15 min. A total of 100 μl of 2 M H2SO4 was added to each well to stop the reaction, and the absorbance at 450 nm was measured. The intra- and inter-assay coefficients of variance were determined by measuring five serum samples in a total of six independent assays with duplicate determinations.
The effect of rosiglitazone on serum levels of lipocalin-2 was investigated in 32 T2DM patients (see Example 2) treated with this drug (4 mg twice daily) for 8 weeks.

[2] = system: C57 mice; assay: Chronic treatment of C57 mice with recombinant lipocalin-2: body weight, food intake, metabolic parameters, ipGTT and ITT; assay type: in vivo, mouse
Procedure: Fasting (16 hr) plasma glucose levels and triglyceride (TG) concentrations were measured by using a Glucose (GO) assay kit (Sigma) and Triglyceride GPO reagent (Pointe Scientific Inc., Lincoln Park, Mich., USA) respectively. Fasting serum insulin concentrations were quantified by using the commercial ELISA kits from Mercodia AB (Uppsala, Sweden). Serum total cholesterol and free fatty acids (FFAs) were analyzed by using the kits from Wako (Richmond, Va., USA) and Roche Diagnostics respectively. TG contents in liver and soleus muscle were analyzed as described elsewhere (Ellis, B. A et al., Am J Physiol Endocrinol Metab. 279:E554-560 (2000); Xu, A., et al. J Clin Invest 112:91-100 (2003)).
For ipGTT, overnight fasted mice (16 hr) were given a glucose load by intraperitoneal injection (1 g glucose/kg body weight). For ITT, mice were starved for 6 h, and then intraperitonally injected with insulin (1 U/kg body weight). Plasma glucose levels were measured at different time points as indicated.
(§1) To evaluate the effect of lipocalin-2 on glucose homeostasis and insulin sensitivity, normal C57 mice were treated with murine lipocalin-2 by intraperitoneal injection of the recombinant protein (5 mg protein/kg body weight, twice a day at 12 hr intervals).

[3] = system: genes involved in glucose and lipid metabolism in skeletal muscle and liver; assay: mRNA expression of genes involved in glucose and lipid metabolism in skeletal muscle and liver of lipocalin-2-treated mice; assay type: in vivo, mouse; conditions: versus vehicle
Procedure: Total RNA was isolated from mouse liver, epididymal adipose tissue and soleus muscle using the RNeasy kit (Qiagen). Subsequently, mRNA was reverse transcribed into cDNA using the oligo-dT primer (Roche). The relative gene abundance was quantified by Taqman real-time PCR using the pre-developed assay kits (Applied Biosystems, Foster city, CA). The reactions were performed on the ABI 7000 sequence detection system.
as §1
The effects of lipocalin-2 on mRNA expression of several genes involved in glucose and lipid metabolism in skeletal muscle and liver were investigated (FIGS. 4A-4B).

[4] = system: L6 myotubes; assay: Fatty acid uptake, fatty acid oxidation and triglyceride accumulation in L6 myotubes; assay type: cell-based, rat
Description: FIG. 5A is a bar graph of […] ^3H-palmitate uptake (fold over control) in differentiated L6 myotubes treated with the indicated concentrations of lipocalin-2 or vehicle for 48 hr. FIG. 5B is a bar graph of ^14C-oleate oxidation (fold over control) in differentiated L6 myotubes treated with the indicated concentrations of lipocalin-2 or vehicle for 48 hr. Fatty acid oxidation was quantified by the production of ^14CO2 from [1-^14C]oleate. * P<0.05; ** P<0.01 versus untreated cells.
(§2) Rat L6 skeletal myoblasts were grown in α-minimum essential medium (αMEM) containing 10% (v/v) FBS and 1% antibiotic solution (100 units/ml penicillin, 100 μg/ml streptomycin, 250 ng/ml amphotericin B) in a humidified atmosphere of 95% air and 5% CO2 at 37° C. For differentiation to myotubes, cells were cultured in αMEM containing 2% (v/v) FBS for 5-7 days.
[^3H]-palmitic acid (Amersham, Quebec, Canada) was used to determine fatty acid uptake as previously described (Bastie, C. C., et al. Diabetes, 53:2209-2216 (2004)). with slight modifications. […] After treatments, culture medium was removed and cells washed twice with wash buffer (140 mM NaCl, 20 mM HEPES-Na, 2.5 mM MgSO4, 1 mM CaCl2, 5 mM KCl pH 7.4, 0.1% defatted albumin) and once with HEPES buffer. Cells were subsequently incubated with transport solution (10 μM defatted albumin, 0.5 μCi/ml [^3H]-palmitic acid; FA:BSA ratio=2) for 1 minute at room temperature. Then the reaction was stopped by washing with pre-cold stop buffer (140 mM NaCl, 20 mM HEPES-Na, 2.5 mM MgSO4, 1 mM CaCl2, 5 mM KCl pH 7.4) Non-specific uptake was measured in the presence of excess palmitate (2 mM) and subtracted from all other values. Cells were then lysed with 1 M KOH and aliquots were transferred to scintillation vials for ^3H radioactivity counting.

[5] = system: L6 myotubes; assay: 2-deoxyglucose uptake in L6 myotubes; assay type: cell-based, rat
Procedure: FIG. 6 is a bar graph of 2-deoxyglucose uptake (arbitrary units) in L6 myotubes treated without or with indicated concentrations of lipocalin-2 for 48 hr, and then stimulated without or with insulin for another 20 min. The rate of glucose uptake was measured by uptake of 2-deoxy-D-[^3H]glucose. * P<0.05 versus untreated cells; # P<0.05 versus cells treated with insulin alone (n=4-6).
as §2
Cells were incubated with various concentration of lipocalin-2 for 20 h, subsequently serum-starved in the continued presence of lipocalin-2 for the final 4 h in 24-well plates prior to further treatment. Cells were then washed twice with PBS and treated with insulin or vehicle for 15 min. After treatments, glucose uptake was determined. Briefly, cells were incubated in transport solution (140 mM NaCl, 20 mM HEPES-Na, 2.5 mM MgSO4, 1 mM CaCl2, 5 mM KCl and 0.5 μCi/ml 2-deoxy-D-[^3H]glucose, pH 7.4) for 5 min at room temperature. Nonspecific uptake was measured in the presence of cytochalasin B (10 μM). Cells were then lysed with 1 M KOH, and aliquots were transferred to scintillation vials for ^3H radioactivity counting.

[6] = fasting, recombinant lipocalin-2 5 mg/kg i.p. twice a day, 4 weeks
[7] = recombinant lipocalin-2 5 mg/kg i.p. twice a day, 4 weeks
[8] = liver tissue of lipocalin-2-treated mice
[9] = skeletal muscle of lipocalin-2-treated mice
[10] = L6 myotubes, acute treatment within 2 hr (data not shown)

With `CN(CCOc1ccc(CC2SC(=O)NC2=O)cc1)c1ccccn1` (centres unmarked) [rosiglitazone] the “Body Mass Index” value [1] was 25.5 ± 3.6 Kg/m^2, the “Fasting Glucose” value [1] was 6.8 ± 1.2 mM and the “Fasting Insulin” value [1] was 7.9 ± 3.5 mIU/l. The HOMA-IR [1] was 2.4 ± 1.2 and the “Lipocalin-2 (serum level)” value [1] was 61.9 ± 25.9 ng/mL.

B1: Lipocalin-2: recombinant murine lipocalin-2 expressed in BL21 cells, His6 tag and endotoxin removed (protein)
chain: QDSTQNLIPAPSLLTVPLQPDFRSDQFRGRWYVVGLAGNAVQKKTEGSFTMYSTIYELQENNSYNVTSILVRDQDQGCRYWIRTFVPSSRAGQFTLGNMHRYPQVQSYNVQVATTDYNQFAMVFFRKTSENKQYFKITLYGRTKELSPELKERFTRFAKSLGLKDDNIIFSVPTDQCIDN
modifications: left off: small tags and cut ends
notes: recombinant murine lipocalin-2 expressed in BL21 cells, His6 tag and endotoxin removed
B1 was tested, and the “daily average of serum lipocalin-2 levels, higher than that of the endogenous protein” value ([2]; 5 mg protein/kg i.p. twice a day at 12 hr intervals) was 2.2-3.5 folds, the Plasma glucose [2, 6] was 137.4 ± 11.6 mg/dL and the Plasma insulin [2, 6] was 1.5 ± 0.04 ng/mL. The “Serum TG” value [2, 6] was 93.9 ± 8.9 mg/dL, the “glucose tolerance (ipGTT)” value ([2]; long-term lipocalin-2 treatment, day 24, 1 g glucose/kg i.p.) was “induced glucose intolerance” and the “insulin sensitivity (ITT)” value ([2]; long-term lipocalin-2 treatment, day 26, insulin 1 U/kg i.p.) was “decreased insulin sensitivity”. For the same molecule, the “Serum FFAs” value [2, 7] was 0.72 ± 0.08 mmol/L, the Serum adiponectin [2, 7] was 7.9 ± 1.8 µg/mL and the Serum total cholesterol [2, 7] was 101.4 ± 8.8 mg/dL. The “TG contents in liver” value [2, 7] was 6.9 ± 0.8 mg/g tissue, the “TG contents in muscle” value [2, 7] was 7.3 ± 0.8 mg/g tissue and the “expression of glucose-6-phosphatase (G6P)” value [3, 8] was “modest, but significant increase”. For the same molecule, the “expression of phosphoenolpyruvate carboxylase (PEPCK)” value [3, 8] was “modest, but significant increase”, the “expression of several genes involved in fatty acid transport, synthesis and oxidation” value [3, 8] was “did not modulate” and the “expression of GLUT1” value [3, 9] was “decreased”. For the same molecule, the “expression of GLUT4, acetyl CoA carboxylase (ACO) and several other fatty acid transport proteins (FATP2, 3 and 5, and CD36)” value [3, 9] was “did not affect”, the “expression of acyl-CoA oxidase” value [3, 9] was “inhibited” and the “expression of uncoupling protein 2 (UCP2)” value [3, 9] was “inhibited”. For the same molecule, the “steady-state mRNA level of fatty acid transport protein 1 (FATP-1)” value [3, 9] was “significantly increased”, the “steady-state mRNA level of fatty acid transport protein 4 (FATP-4)” value [3, 9] was “significantly increased” and the “triglyceride accumulation, increase compared with untreated cells” value ([4]; L6 myotubes at 72 hr following lipocalin-2 treatment, n=4, p<0.05) was 1.51±0.58 folds. For the same molecule, the “fatty acid uptake and oxidation, acute treatment” value [4, 10] was “no obvious effects”, the fatty acid uptake ([4]; L6 myotubes, prolonged incubation with lipocalin-2 (24 h and 48 h), 3H-palmitate) was “significant increase” and the “rate of fatty acid oxidation” value ([4]; L6 myotubes, prolonged incubation with lipocalin-2 (24 h and 48 h), 14C-oleate) was “decrease”. The basal glucose uptake ([5]; L6 myotubes at 48 hr after lipocalin-2 treatment) was “significantly decreased”, the “basal and insulin-stimulated glucose uptake, acute treatment” value [5, 10] was “no obvious effects” and the “magnitude of insulin-stimulated increase in glucose uptake, versus untreated cells” value ([5]; L6 myotubes, lipocalin-2-treated, not statistically significant) was “slightly lower”.
